Measured values as given in patent US20100143349A1 (Pfizer, published 2010).
Numbering of substitutions follows the chain as printed. Blank lines part the entries; values can stand above or below the binder they belong to.

Key:
hRAGE-Fc [1] = target: T1, hRAGE-Fc (human, UniProt Q15109 23-342, biotin label in the selections and HTRF assays); assay: HTRF competition, scFv vs labelled parental XT-M4 (competitor) on biotin hRAGE-Fc
T1 construct: extracellular domain; also called biotin labeled hRAGE-Fc; Biotin-labeled RAGE-Fc; not shown: Fc part
T1 sequence (Q15109 23-342): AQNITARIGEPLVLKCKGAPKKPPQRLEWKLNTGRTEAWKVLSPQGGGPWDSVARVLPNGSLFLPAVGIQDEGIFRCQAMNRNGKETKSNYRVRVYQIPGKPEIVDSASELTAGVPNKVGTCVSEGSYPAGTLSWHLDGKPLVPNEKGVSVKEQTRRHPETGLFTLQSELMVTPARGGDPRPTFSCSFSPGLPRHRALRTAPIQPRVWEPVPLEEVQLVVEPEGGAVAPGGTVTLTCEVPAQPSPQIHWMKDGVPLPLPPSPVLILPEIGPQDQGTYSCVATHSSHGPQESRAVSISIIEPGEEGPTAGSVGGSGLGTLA
Procedure: (§1) Increases in binding to RAGE antigen were detected with the aid of a competition assay using parental XT-M4 antibody. Both phage display and ribosome display libraries were selected for affinity improved variants by incubating with biotin labeled hRAGE-Fc, recovering binding clones using streptavidin magnetic beads and washing away non binding variants. Sequential rounds of selection were carried on decreasing antigen concentrations to drive the preferential recovery of higher affinity variants. Clones recovered after selection were subsequently screening for improved binding to hRAGE-Fc using HTRF. This is an assay that measures the decrease in fluorescence upon binding of parental europium cryptate-labeled XT-M4 to RAGE in the presence of competing test scFv antibodies. In these assays, periplasmic preparations of scFv were prepared from bacterial cultures and added in increasing concentrations to a combination of parental antibody and antigen. The ability of the scFV to compete with parental XT-M4 antibody to bind to Biotin-labeled RAGE-Fc was determined. In the presence of avidin-XL665 complex labeled XT-M4 bound to biotinylated RAGE-FC was detected by Fluorescence. Increasing amounts of scFv that competed with the XT-M4 for binding to biotinylated-RAGE-Fc was detected as a decrease in fluorescence. A sequential process of screening was used to focus in on a smaller number of clones with the greatest competition in HTRF assay

hRAGE-Fc [2] = target: T1, hRAGE-Fc; assay: IC50 of parental M4 scFv over IC50 of clone, HTRF competition
Procedure: as §1

hRAGE-Fc [3] = target: T1, hRAGE-Fc; assay: HTRF competition, scFv vs labelled parental XT-M4 (competitor) on hRAGE
Procedure: as §1

HU-RAGE-SA [4] = target: T2, HU-RAGE-SA (human, UniProt Q15109 23-342); assay: BIAcore kd against parental M4 scFv-Fc
T2 construct: extracellular domain; Directly immobilized on a CM5 chip (~100 RU); also called hRAGE-SA; soluble human streptavidin-tagged RAGE; not shown: streptavidin tag (SA)
T2 sequence (Q15109 23-342): as above

[5] = target: T3, human RAGE expressed on CHO cells (human, UniProt Q15109 23-404); assay: cell ELISA on CHO-RAGE cells, A450 corrected for control CHO cells
T3 construct: whole, on cells; also called CHO-RAGE cells; cell surface expressed human RAGE
T3 sequence (Q15109 23-404): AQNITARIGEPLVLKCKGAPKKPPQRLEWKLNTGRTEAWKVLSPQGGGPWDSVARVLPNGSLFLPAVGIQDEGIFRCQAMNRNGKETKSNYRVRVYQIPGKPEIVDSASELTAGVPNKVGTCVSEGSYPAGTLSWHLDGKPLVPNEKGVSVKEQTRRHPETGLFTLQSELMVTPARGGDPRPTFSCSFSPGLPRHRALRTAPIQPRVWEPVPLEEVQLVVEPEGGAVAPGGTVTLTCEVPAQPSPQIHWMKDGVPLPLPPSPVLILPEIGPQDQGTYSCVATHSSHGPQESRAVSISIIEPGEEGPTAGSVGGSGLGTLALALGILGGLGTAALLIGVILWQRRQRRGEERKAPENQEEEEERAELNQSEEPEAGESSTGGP
Procedure: Stably transfected Chinese Hamster Ovary (CHO) cells were engineered to express murine and human RAGE full length proteins. The murine and human RAGE cDNAs were cloned into the mammalian expression vector pSMED, linearized and transfected into CHO cells using lipofectin methods (Kaufman, R. J., 1990, Methods in Enzymology 185:537-66; Kaufman, R. J., 1990, Methods in Enzymology 185:487-511; Pittman, D. D. et al., 1993, Methods in Enzymology 222: 236). Cells were further selected in 20 nM methotrexate and cell extracts were harvested from individual clones and analyzed by SDS sodium dodecyl sulfate-polyacrylamide gel electrophoresis (SDS-PAGE) and Western blotting to confirm expression. […] Absorbance 450 nm values were corrected for the same clones binding to control CHO cells not expressing RAGE. EC50 values were calculated after curve fitting using GraphPad prism and are expressed in μg/ml.

HU-RAGE-SA [6] = target: T2, HU-RAGE-SA; assay: BIAcore, 10 nM scFv-Fc over directly immobilized HU-RAGE-SA, 1:1 fit
hRAGE-Fc [7] = target: T1, hRAGE-Fc; assay: IC50 of parental M4 scFv-Fc over IC50 of clone, HTRF competition

IC50 (hRAGE-Fc [1]): 0.474 nM | Fold gain scFv (hRAGE) (hRAGE-Fc [2]): 70 fold | IC50 (hRAGE-Fc [3]): 0.47 nM
B1: 3A6 scFv (scFv)
scFv: DIQMTQSPSSLSASVGDRVTITCRASQDVGIYVNWFQQKPGKAPRRLIYRATNLADGVPSRFSGSRSGTDFTLTISSLQPEDFATYYCLEFDEHPLTFGGGTKVEIKDGGGSGGGGSGGGGSSEVQLVESGGGLVQPGGSLRLSCAASGFTFNNYWMTWVRQAPGKGLEWVASIDNSGDNTYYPDSVKDRFTISRDNAKNSLYLQMNSLRAEDTAVYYCARGGDILVSLDVWGQGTLVTVSS

IC50 (hRAGE-Fc [1]): 6.94 nM
B2: 6A10 scFv (scFv)
scFv: B1 scFv with E90Q, E93A, L226T, V227T, S228G, L229F, V231Y

IC50 (hRAGE-Fc [1]): 7.35 nM
B3: 3B7 scFv (scFv)
scFv: B1 scFv with E90Q, E93S, L226T, V227T, S228G, L229F, V231Y

IC50 (hRAGE-Fc [1]): 1.26 nM
B4: 3C6 scFv (scFv)
scFv: B1 scFv with L226V, S228G, V231H

Fold change in kd (HU-RAGE-SA [4]): 33.8 fold | EC50 [5]: 0.0673 mg/L | koff (HU-RAGE-SA [6]): 0.000867 s⁻¹ | Fold gain scFv-Fc (hRAGE) (hRAGE-Fc [7]): 9.9 fold
B5: 3A6 scFv-Fc fusion (Fc fusion)
chain: B1 scFv
notes: not shown: wild-type human IgG Fc (hinge and constant domains)

Fold change in kd (HU-RAGE-SA [4]): 42.8 fold | EC50 [5]: 0.0335 mg/L | koff (HU-RAGE-SA [6]): 0.000684 s⁻¹ | Fold gain scFv-Fc (hRAGE) (hRAGE-Fc [7]): 34.2 fold
B6: 3B2 scFv-Fc fusion (Fc fusion)
chain: B1 scFv with S228G, V231Y
notes: as for B5

IC50 (hRAGE-Fc [1]): 2.92 nM
B7: 3D6 scFv (scFv)
scFv: B1 scFv with L226R, S228M, V231L

Fold change in kd (HU-RAGE-SA [4]): 61 fold | EC50 [5]: 0.0816 mg/L | koff (HU-RAGE-SA [6]): 0.000484 s⁻¹ | Fold gain scFv-Fc (hRAGE) (hRAGE-Fc [7]): 8.2 fold
B8: 6B2 scFv-Fc fusion (Fc fusion)
chain: B1 scFv with L226R, S228G
notes: Substitutions derived from the printed HCDR3; not shown: wild-type human IgG Fc (hinge and constant domains)

IC50 (hRAGE-Fc [1]): 0.917 nM | Fold gain scFv (hRAGE) (hRAGE-Fc [2]): 35.8 fold | IC50 (hRAGE-Fc [3]): 0.92 nM
B9: 3B2 scFv (scFv)
scFv: B1 scFv with S228G, V231Y

IC50 (hRAGE-Fc [1]): 9.03 nM
B10: 6C11 scFv (scFv)
scFv: B1 scFv with E90Q, F91Y, E93A, L226T, V227T, S228G, L229F, V231Y

IC50 (hRAGE-Fc [1]): 8.27 nM
B11: 6A12 scFv (scFv)
scFv: B1 scFv with E90Q, F91Y, E93A, L226T, V227T, S228G, L229F, V231Y

IC50 (hRAGE-Fc [1]): 0.645 nM | Fold gain scFv (hRAGE) (hRAGE-Fc [2]): 50.7 fold | IC50 (hRAGE-Fc [3]): 0.65 nM
B12: 6B6 scFv (scFv)
scFv: B1 scFv with L226I, V227I, V231W

Fold change in kd (HU-RAGE-SA [4]): 65.1 fold | EC50 [5]: 0.0565 mg/L | koff (HU-RAGE-SA [6]): 0.00045 s⁻¹ | Fold gain scFv-Fc (hRAGE) (hRAGE-Fc [7]): 62.7 fold
B13: 3G5 scFv-Fc fusion (Fc fusion)
chain: B1 scFv with V227D, D230P, V231Y
notes: as for B8

Fold change in kd (HU-RAGE-SA [4]): 7.4 fold | EC50 [5]: 0.136 mg/L | koff (HU-RAGE-SA [6]): 0.00391 s⁻¹ | Fold gain scFv-Fc (hRAGE) (hRAGE-Fc [7]): 31.3 fold
B14: 3D2 scFv-Fc fusion (Fc fusion)
chain: B1 scFv with L226R, V231H
notes: as for B5

IC50 (hRAGE-Fc [1]): 1.53 nM | Fold gain scFv (hRAGE) (hRAGE-Fc [2]): 21.5 fold | IC50 (hRAGE-Fc [3]): 1.53 nM
B15: 6C3 scFv (scFv)
scFv: B1 scFv with L226T, V227L, S228G

IC50 (hRAGE-Fc [1]): 1.27 nM | Fold gain scFv (hRAGE) (hRAGE-Fc [2]): 26 fold | IC50 (hRAGE-Fc [3]): 1.27 nM
B16: 3D2 scFv (scFv)
scFv: B1 scFv with L226R, V231H

Fold change in kd (HU-RAGE-SA [4]): 0.35 fold | koff (HU-RAGE-SA [6]): 0.0826 s⁻¹ | Fold gain scFv-Fc (hRAGE) (hRAGE-Fc [7]): 6.1 fold
B17: 5H3 scFv-Fc fusion (Fc fusion)
chain: B1 scFv with Y49D, Q126L, L226T, V227T, S228G, L229F, V231Y
notes: as for B5

Fold change in kd (HU-RAGE-SA [4]): 5.9 fold | EC50 [5]: 0.096 mg/L | koff (HU-RAGE-SA [6]): 0.00494 s⁻¹ | Fold gain scFv-Fc (hRAGE) (hRAGE-Fc [7]): 12.2 fold
B18: 5A3 scFv-Fc fusion (Fc fusion)
chain: B1 scFv with R18I, G68S, Q205K, A220T, L226T, V227T, S228G, V231Y
notes: as for B5

IC50 (hRAGE-Fc [1]): 2.25 nM
B19: 6E5 scFv (scFv)
scFv: B1 scFv with L226R, S228M

Fold change in kd (HU-RAGE-SA [4]): 25.3 fold | koff (HU-RAGE-SA [6]): 0.00116 s⁻¹ | Fold gain scFv-Fc (hRAGE) (hRAGE-Fc [7]): 13.7 fold
B20: 10H6 scFv-Fc fusion (Fc fusion)
chain: B1 scFv with R18G, R24Q, D108N, L226T, V227T, S228G, V231Y, V240E
notes: also called 10H6 (a); not shown: wild-type human IgG Fc (hinge and constant domains)

Fold change in kd (HU-RAGE-SA [4]): 25.7 fold | EC50 [5]: 0.113 mg/L | koff (HU-RAGE-SA [6]): 0.00114 s⁻¹ | Fold gain scFv-Fc (hRAGE) (hRAGE-Fc [7]): 6.9 fold
B21: 2E6 scFv-Fc fusion (Fc fusion)
chain: B1 scFv with S122N, G132V, L226T, V227N, S228G, V231Y
notes: also called 2E6 (c); not shown: wild-type human IgG Fc (hinge and constant domains)

IC50 (hRAGE-Fc [1]): 1.44 nM
B22: 3G3 scFv (scFv)
scFv: B1 scFv with L226K, V231H

IC50 (hRAGE-Fc [1]): 1.75 nM
B23: 6E3 scFv (scFv)
scFv: B1 scFv with L226R, V231F

IC50 (hRAGE-Fc [1]): 0.87 nM | Fold gain scFv (hRAGE) (hRAGE-Fc [2]): 37.9 fold | IC50 (hRAGE-Fc [3]): 0.87 nM
B24: 3G5 scFv (scFv)
scFv: B1 scFv with V227D, D230P, V231Y

IC50 (hRAGE-Fc [1]): 3 nM
B25: 3D5 scFv (scFv)
scFv: B1 scFv with L226K, S228G, V231L

IC50 (hRAGE-Fc [1]): 8.08 nM
B26: 3G8 scFv (scFv)
scFv: B1 scFv with E90Q, F91Y, E93A, L226T, V227T, S228G, L229F, V231Y

Fold change in kd (HU-RAGE-SA [4]): 4.5 fold | EC50 [5]: 0.541 mg/L | koff (HU-RAGE-SA [6]): 0.00649 s⁻¹ | Fold gain scFv-Fc (hRAGE) (hRAGE-Fc [7]): 8.8 fold
B27: 3B3 scFv-Fc fusion (Fc fusion)
chain: B1 scFv with I31F, L226T, V227T, S228G, V231Y
notes: as for B5

Fold change in kd (HU-RAGE-SA [4]): 66.9 fold | EC50 [5]: 0.188 mg/L | koff (HU-RAGE-SA [6]): 0.000438 s⁻¹ | Fold gain scFv-Fc (hRAGE) (hRAGE-Fc [7]): 6.4 fold
B28: 1G6 scFv-Fc fusion (Fc fusion)
chain: B1 scFv with I31F, L226T, V227N, S228G, L229F, V231Y
notes: as for B5

IC50 (hRAGE-Fc [1]): 7.21 nM
B29: 3E8 scFv (scFv)
scFv: B1 scFv with E90Q, E93V, L226T, V227T, S228G, L229F, V231Y

IC50 (hRAGE-Fc [1]): 1.77 nM | Fold gain scFv (hRAGE) (hRAGE-Fc [2]): 18.6 fold | IC50 (hRAGE-Fc [3]): 1.77 nM
B30: 6B2 scFv (scFv)
scFv: B1 scFv with L226R, S228G

IC50 (hRAGE-Fc [1]): 2.03 nM | Fold gain scFv (hRAGE) (hRAGE-Fc [2]): 16.2 fold | IC50 (hRAGE-Fc [3]): 2.03 nM
B31: 6G4 scFv (scFv)
scFv: B1 scFv with V227D, D230H, V231F

IC50 (hRAGE-Fc [1]): 7.38 nM
B32: 6C10 scFv (scFv)
scFv: B1 scFv with E90Q, L226T, V227T, S228G, L229F, V231Y

IC50 (hRAGE-Fc [1]): 10.6 nM
B33: 3B9 scFv (scFv)
scFv: B1 scFv with E90Q, E93N, L226T, V227T, S228G, L229F, V231Y

IC50 (hRAGE-Fc [1]): 0.731 nM | Fold gain scFv (hRAGE) (hRAGE-Fc [2]): 48.2 fold | IC50 (hRAGE-Fc [3]): 0.73 nM
B34: 6C2 scFv (scFv)
scFv: B1 scFv with L226K, V231R
